Patent US20130345135A1 (WISCONSIN ALUMNI RESEARCH FOUNDATION, published 2013)

Biological target: myosin in murine skinned myocardium (principal isoform alpha-cardiac myosin) (mouse, UniProt Q02566 1-1938)
Experiment: cell-based or functional assay

Chain of myosin in murine skinned myocardium (principal isoform alpha-cardiac myosin) (Q02566 whole entry, canonical isoform): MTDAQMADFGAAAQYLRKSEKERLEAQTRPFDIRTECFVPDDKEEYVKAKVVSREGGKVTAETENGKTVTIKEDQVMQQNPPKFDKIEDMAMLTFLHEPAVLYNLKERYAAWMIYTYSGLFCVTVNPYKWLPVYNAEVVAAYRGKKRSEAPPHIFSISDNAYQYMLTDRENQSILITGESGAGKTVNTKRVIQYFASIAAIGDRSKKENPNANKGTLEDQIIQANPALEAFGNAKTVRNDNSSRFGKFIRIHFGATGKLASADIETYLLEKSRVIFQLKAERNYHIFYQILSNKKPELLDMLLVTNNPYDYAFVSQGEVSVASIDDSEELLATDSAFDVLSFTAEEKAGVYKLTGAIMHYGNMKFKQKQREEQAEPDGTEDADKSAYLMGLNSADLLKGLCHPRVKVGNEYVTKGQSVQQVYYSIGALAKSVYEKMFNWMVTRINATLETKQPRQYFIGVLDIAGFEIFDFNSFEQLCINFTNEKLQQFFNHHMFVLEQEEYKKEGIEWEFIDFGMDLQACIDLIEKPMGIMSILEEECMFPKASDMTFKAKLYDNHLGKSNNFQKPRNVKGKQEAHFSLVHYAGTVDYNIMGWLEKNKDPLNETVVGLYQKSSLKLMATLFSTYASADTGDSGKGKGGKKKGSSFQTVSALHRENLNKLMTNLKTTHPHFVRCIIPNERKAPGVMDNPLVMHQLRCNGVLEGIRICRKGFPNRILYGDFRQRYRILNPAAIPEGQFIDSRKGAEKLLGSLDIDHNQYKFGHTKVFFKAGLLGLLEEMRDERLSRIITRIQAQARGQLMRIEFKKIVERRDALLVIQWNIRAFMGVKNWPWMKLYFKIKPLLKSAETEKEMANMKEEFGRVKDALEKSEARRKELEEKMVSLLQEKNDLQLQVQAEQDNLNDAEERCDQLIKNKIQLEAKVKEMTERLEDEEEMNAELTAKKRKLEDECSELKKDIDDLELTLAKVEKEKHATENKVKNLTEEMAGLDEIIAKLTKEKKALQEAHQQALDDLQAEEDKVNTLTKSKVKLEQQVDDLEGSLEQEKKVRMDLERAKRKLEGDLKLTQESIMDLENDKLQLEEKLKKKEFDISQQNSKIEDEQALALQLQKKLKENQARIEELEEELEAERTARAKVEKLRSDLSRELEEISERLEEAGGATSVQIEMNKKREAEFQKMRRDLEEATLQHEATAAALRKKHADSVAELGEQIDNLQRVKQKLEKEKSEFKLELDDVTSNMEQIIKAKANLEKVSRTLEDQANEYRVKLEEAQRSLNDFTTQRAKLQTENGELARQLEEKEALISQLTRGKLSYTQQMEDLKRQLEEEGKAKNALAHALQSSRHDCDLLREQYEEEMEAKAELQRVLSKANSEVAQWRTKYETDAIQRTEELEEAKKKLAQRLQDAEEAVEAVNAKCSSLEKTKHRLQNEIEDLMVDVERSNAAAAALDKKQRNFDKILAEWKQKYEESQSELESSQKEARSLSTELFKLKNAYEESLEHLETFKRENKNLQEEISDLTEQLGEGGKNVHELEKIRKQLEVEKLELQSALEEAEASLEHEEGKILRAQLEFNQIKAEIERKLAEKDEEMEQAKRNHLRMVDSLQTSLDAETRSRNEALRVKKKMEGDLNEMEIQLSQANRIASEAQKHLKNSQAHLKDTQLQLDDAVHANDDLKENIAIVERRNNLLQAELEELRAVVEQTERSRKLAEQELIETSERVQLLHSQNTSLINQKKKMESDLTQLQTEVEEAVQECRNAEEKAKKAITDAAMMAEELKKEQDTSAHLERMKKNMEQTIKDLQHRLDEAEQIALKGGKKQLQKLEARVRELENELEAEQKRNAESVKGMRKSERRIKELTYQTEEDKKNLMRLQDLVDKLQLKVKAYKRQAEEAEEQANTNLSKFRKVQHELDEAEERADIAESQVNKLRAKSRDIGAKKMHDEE

B1: peptide 302A (peptide)
peptide: FSSLLKKRDAFRRDAKLE
  force at intermediate pCa (scaled to force at pCa 4.5), mouse, 50 uM peptide, fold of control: ~2 x control
  force at pCa 5.9 (scaled to force at pCa 4.5), mouse, 50 uM peptide, fold of untreated: ~3 x (fold of untreated force)
